Test results taken from US20100310509A1 (published 2010).

B1: soluble human LIFR (leukemia inhibitory factor receptor) (receptor, UniProt P42702 45-833, looked up)
chain: QKKGAPHDLKCVTNNLQVWNCSWKAPSGTGRGTDYEVCIENRSRSCYQLEKTSIKIPALSHGDYEITINSLHDFGSSTSKFTLNEQNVSLIPDTPEILNLSADFSTSTLYLKWNDRGSVFPHRSNVIWEIKVLRKESMELVKLVTHNTTLNGKDTLHHWSWASDMPLECAIHFVEIRCYIDNLHFSGLEEWSDWSPVKNISWIPDSQTKVFPQDKVILVGSDITFCCVSQEKVLSALIGHTNCPLIHLDGENVAIKIRNISVSASSGTNVVFTTEDNIFGTVIFAGYPPDTPQQLNCETHDLKEIICSWNPGRVTALVGPRATSYTLVESFSGKYVRLKRAEAPTNESYQLLFQMLPNQEIYNFTLNAHNPLGRSQSTILVNITEKVYPHTPTSFKVKDINSTAVKLSWHLPGNFAKINFLCEIEIKKSNSVQEQRNVTIKGVENSSYLVALDKLNPYTLYTFRIRCSTETFWKWSKWSNKKQHLTTEASPSKGPDTWREWSSDGKNLIIYWKPLPINEANGKILSYNVSCSSDEETQSLSEIPDPQHKAEIRLDKNDYIISVVAKNSVGSSPPSKIASMEIPNDDLKIEQVVGMGKGILLTWHYDPNMTCDYVIKWCNSSRSEPCLMDWRKVPSNSTETVIESDEFRPGIRYNFFLYGCRNQGYQLLRSMIGYIEELAPIVAPNFTVEDTSADSILVKWEDIPVEELRGFLRGYLFYFGKGERDTSKMRVLESGRSDIKVKNITDISQKTLRIADLQGKTSYHLVLRAYTDGGVGPEKSMYVVTKENS
notes: extracellular domain; Bought; also called soluble LIFR

Columns and labels:
[1] = molecular target: T1, gp130 bound OSM-WT (gp130:OSM-WT) (human, UniProt P40189 23-619); test: ELISA, apparent KD (KD,App), gp130 coated, saturating cytokine, soluble LIFR titrated (with gp130)
T1 construct: extracellular domain; Non-covalent complex formed on the plate: gp130 coated, then 200 nM OSM-WT; also called OSM-WT with gp130; not shown: N-terminal FLAG tag
T1 sequence 1: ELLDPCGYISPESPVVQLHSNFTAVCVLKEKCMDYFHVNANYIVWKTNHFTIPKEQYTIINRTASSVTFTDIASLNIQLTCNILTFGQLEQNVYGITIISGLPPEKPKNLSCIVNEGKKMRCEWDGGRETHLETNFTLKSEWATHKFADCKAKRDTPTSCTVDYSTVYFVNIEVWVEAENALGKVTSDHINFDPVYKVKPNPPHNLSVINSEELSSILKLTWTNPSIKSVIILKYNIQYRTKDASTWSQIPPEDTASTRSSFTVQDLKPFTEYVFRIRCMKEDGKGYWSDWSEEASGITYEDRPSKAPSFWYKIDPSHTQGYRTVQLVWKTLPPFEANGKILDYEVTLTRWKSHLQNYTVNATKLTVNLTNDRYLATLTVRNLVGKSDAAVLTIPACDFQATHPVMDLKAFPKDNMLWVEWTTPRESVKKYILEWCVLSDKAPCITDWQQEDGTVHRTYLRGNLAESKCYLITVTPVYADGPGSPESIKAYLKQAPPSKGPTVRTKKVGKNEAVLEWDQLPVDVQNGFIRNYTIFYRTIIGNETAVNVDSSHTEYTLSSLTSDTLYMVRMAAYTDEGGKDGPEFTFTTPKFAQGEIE
T1 sequence 2: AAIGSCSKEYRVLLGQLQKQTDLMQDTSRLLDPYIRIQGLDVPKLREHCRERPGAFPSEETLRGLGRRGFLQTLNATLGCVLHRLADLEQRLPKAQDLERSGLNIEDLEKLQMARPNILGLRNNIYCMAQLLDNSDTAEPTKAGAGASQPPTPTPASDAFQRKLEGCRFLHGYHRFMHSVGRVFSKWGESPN
Procedure: (§1) FIG. 13 graphically depicts an ELISA analysis of soluble OSMR and soluble LIFR binding with LIF, OSM-WT, OSM-M1 and OSM-M2 or gp130 bound LIF (gp130:LIF), OSM-WT (gp130:OSM-WT), OSM-M1 (gp130:OSM-M1) and OSM-M2 (gp130:OSM-M2). Cytokines (LIF, OSM-WT, OSM-M1 or OSM-M2) immobilized on an ELISA plate in the absence (A,C) or presence (B,D) of gp130 were treated with various concentrations of soluble OSMR (A,B) or soluble LIFR (C,D). Equilibrium KD values were estimated using a non-linear curve fitting to the binding data using GraphPad Prism (Graph Pad Software. LaJolla, Calif.). In addition, see Table 3.
(§2) Enzyme-linked immunosorbent assay (ELISA): ELISA was used to evaluate the equilibrium binding strength of the interaction between the cytokines and their receptors. This technique has traditionally been used as a sensitive method to quantify the binding affinities between two interacting proteins. However, unlike in SPR, ELISA involves immobilization of the proteins on a flat plastic surface driven by hydrophobic and ionic interactions. This might cause some distortion in the 3 dimensional structure of immobilized protein which leads to inaccuracies in the estimation of dissociation constants. It is thus important to bear in mind that the values estimated using this technique are to be used only for comparison between species but not as true equilibrium binding constants. The results obtained using this technique will thus be presented as apparent equilibrium dissociation constants (K_{D,App}). For direct interaction studies, cytokines (LIF, OSM-WT, OSM-M1 or OSM-M2) were immobilized on the 96 well ELISA plate by incubating the wells with 200 μl of 5 nM cytokine solution in PBS, pH 7.4 overnight at 4° C. The wells were then blocked with blocking buffer (4% BSA in PBS) for 1 hour at room temperature. After washing with 250 μl of washing buffer (0.05% Tween-20 in PBS) 3 times, the cytokines were treated with a series of concentrations of soluble human LIFR (Catalog #249-LR-050/CF, R&D Systems, Minneapolis, Minn.) or OSMR (Catalog #4389-OR-050, R&D Systems, Minneapolis, Minn.) in 150 μl of blocking buffer for 2 hours.

[2] = molecular target: B1; test: as above
Procedure: as §1, §2

Binder	Kd [1]	Kd [2]
B1	70.3 nM	–
gp130 bound LIF (gp130:LIF) (other, Non-covalent complex formed on the plate: gp130 coated, then saturating cytokine; also called LIF with gp130) chain 1: ELLDPCGYISPESPVVQLHSNFTAVCVLKEKCMDYFHVNANYIVWKTNHFTIPKEQYTIINRTASSVTFTDIASLNIQLTCNILTFGQLEQNVYGITIISGLPPEKPKNLSCIVNEGKKMRCEWDGGRETHLETNFTLKSEWATHKFADCKAKRDTPTSCTVDYSTVYFVNIEVWVEAENALGKVTSDHINFDPVYKVKPNPPHNLSVINSEELSSILKLTWTNPSIKSVIILKYNIQYRTKDASTWSQIPPEDTASTRSSFTVQDLKPFTEYVFRIRCMKEDGKGYWSDWSEEASGITYEDRPSKAPSFWYKIDPSHTQGYRTVQLVWKTLPPFEANGKILDYEVTLTRWKSHLQNYTVNATKLTVNLTNDRYLATLTVRNLVGKSDAAVLTIPACDFQATHPVMDLKAFPKDNMLWVEWTTPRESVKKYILEWCVLSDKAPCITDWQQEDGTVHRTYLRGNLAESKCYLITVTPVYADGPGSPESIKAYLKQAPPSKGPTVRTKKVGKNEAVLEWDQLPVDVQNGFIRNYTIFYRTIIGNETAVNVDSSHTEYTLSSLTSDTLYMVRMAAYTDEGGKDGPEFTFTTPKFAQGEIE chain 2: not shown	–	10.3 nM
gp130 bound OSM-M2 (gp130:OSM-M2) (other, human, extracellular domain; Non-covalent complex formed on the plate: gp130 coated, then 200 nM OSM-M2; also called OSM-M2 with gp130; not shown: N-terminal FLAG tag) chain 1: ELLDPCGYISPESPVVQLHSNFTAVCVLKEKCMDYFHVNANYIVWKTNHFTIPKEQYTIINRTASSVTFTDIASLNIQLTCNILTFGQLEQNVYGITIISGLPPEKPKNLSCIVNEGKKMRCEWDGGRETHLETNFTLKSEWATHKFADCKAKRDTPTSCTVDYSTVYFVNIEVWVEAENALGKVTSDHINFDPVYKVKPNPPHNLSVINSEELSSILKLTWTNPSIKSVIILKYNIQYRTKDASTWSQIPPEDTASTRSSFTVQDLKPFTEYVFRIRCMKEDGKGYWSDWSEEASGITYEDRPSKAPSFWYKIDPSHTQGYRTVQLVWKTLPPFEANGKILDYEVTLTRWKSHLQNYTVNATKLTVNLTNDRYLATLTVRNLVGKSDAAVLTIPACDFQATHPVMDLKAFPKDNMLWVEWTTPRESVKKYILEWCVLSDKAPCITDWQQEDGTVHRTYLRGNLAESKCYLITVTPVYADGPGSPESIKAYLKQAPPSKGPTVRTKKVGKNEAVLEWDQLPVDVQNGFIRNYTIFYRTIIGNETAVNVDSSHTEYTLSSLTSDTLYMVRMAAYTDEGGKDGPEFTFTTPKFAQGEIE chain 2: AAIGSCSKEYRVLLGQLQKQTDLMQDTSRLLDPYIRIQGLDVPKLREHCRERPGAFPSEETLRGLGRRGFLQTLNATLGCVLHRLADLEQRLGGGNIEDLEKLQMARPNILGLRNNIYCMAQLLDNSDTAEPTKAGAGASQPPTPTPASDAFQRKLEGCRFLHGYHRFMHSVGRVFSKWGESPN	–	9.13 nM
gp130 bound OSM-M1 (gp130:OSM-M1) (other, human, extracellular domain; Non-covalent complex formed on the plate: gp130 coated, then 200 nM OSM-M1; also called OSM-M1 with gp130; not shown: N-terminal FLAG tag) chain 1: ELLDPCGYISPESPVVQLHSNFTAVCVLKEKCMDYFHVNANYIVWKTNHFTIPKEQYTIINRTASSVTFTDIASLNIQLTCNILTFGQLEQNVYGITIISGLPPEKPKNLSCIVNEGKKMRCEWDGGRETHLETNFTLKSEWATHKFADCKAKRDTPTSCTVDYSTVYFVNIEVWVEAENALGKVTSDHINFDPVYKVKPNPPHNLSVINSEELSSILKLTWTNPSIKSVIILKYNIQYRTKDASTWSQIPPEDTASTRSSFTVQDLKPFTEYVFRIRCMKEDGKGYWSDWSEEASGITYEDRPSKAPSFWYKIDPSHTQGYRTVQLVWKTLPPFEANGKILDYEVTLTRWKSHLQNYTVNATKLTVNLTNDRYLATLTVRNLVGKSDAAVLTIPACDFQATHPVMDLKAFPKDNMLWVEWTTPRESVKKYILEWCVLSDKAPCITDWQQEDGTVHRTYLRGNLAESKCYLITVTPVYADGPGSPESIKAYLKQAPPSKGPTVRTKKVGKNEAVLEWDQLPVDVQNGFIRNYTIFYRTIIGNETAVNVDSSHTEYTLSSLTSDTLYMVRMAAYTDEGGKDGPEFTFTTPKFAQGEIE chain 2: AAIGSCSKEYRVLLGQLQKQTDLMQDTSRLLDPYIRIQGLDVPKLREHCRERPGAFPSEETLRGLGRRGFLQTLNATLGCVLHRLADLEQRLGAPSGLNIEDLEKLQMARPNILGLRNNIYCMAQLLDNSDTAEPTKAGAGASQPPTPTPASDAFQRKLEGCRFLHGYHRFMHSVGRVFSKWGESPN	–	12.6 nM
